Assay results published in PMC9482650, “Quantitative fragmentomics allow affinity mapping of interactomes” (Nature Communications, 2022).

Legend:
Test in all cases: holdup assay
Parameters in all cases: key: below the threshold = too weak to quantify, mostly under pKd 3.1 to 4
LIN7B, Q9HAP6 = target: T1, LIN7B, Q9HAP6
T1 sequence (Q9HAP6 88-185, limits assumed, looked up): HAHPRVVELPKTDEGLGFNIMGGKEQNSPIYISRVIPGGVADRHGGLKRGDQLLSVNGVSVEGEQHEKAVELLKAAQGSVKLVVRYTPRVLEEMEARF

SNTG2, Q9NY99 = target: T2, SNTG2, Q9NY99
T2 sequence (Q9NY99 68-166, limits assumed, looked up): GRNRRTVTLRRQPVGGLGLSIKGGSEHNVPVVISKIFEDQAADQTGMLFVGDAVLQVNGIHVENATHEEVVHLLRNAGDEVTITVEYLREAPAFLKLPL

DLG3_1, Q92796 = target: T3, DLG3_1, Q92796
T3 sequence (Q92796 125-227, limits assumed, looked up): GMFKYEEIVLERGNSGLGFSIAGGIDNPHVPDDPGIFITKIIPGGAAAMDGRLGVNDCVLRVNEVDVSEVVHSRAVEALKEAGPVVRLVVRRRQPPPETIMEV

PICK1, Q9NRD5 = target: PICK1, Q9NRD5
Chain of PICK1, Q9NRD5 (Q9NRD5 17-115): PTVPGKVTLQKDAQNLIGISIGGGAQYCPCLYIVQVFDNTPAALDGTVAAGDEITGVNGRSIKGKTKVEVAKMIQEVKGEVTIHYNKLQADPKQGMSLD

DLG3_2, Q92796 = target: T4, DLG3_2, Q92796
T4 sequence (Q92796 221-321, limits assumed, looked up): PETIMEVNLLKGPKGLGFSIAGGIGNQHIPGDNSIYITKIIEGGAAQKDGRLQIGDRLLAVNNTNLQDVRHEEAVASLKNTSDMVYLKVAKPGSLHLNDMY

GRID2IP_2, A4D2P6 = target: GRID2IP_2, A4D2P6
Chain of GRID2IP_2, A4D2P6 (A4D2P6 272-370): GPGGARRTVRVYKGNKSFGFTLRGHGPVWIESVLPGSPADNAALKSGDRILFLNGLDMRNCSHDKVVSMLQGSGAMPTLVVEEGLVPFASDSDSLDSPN

PDZRN3_1, Q9UPQ7 = target: T5, PDZRN3_1, Q9UPQ7
T5 sequence (Q9UPQ7 244-349, limits assumed, looked up): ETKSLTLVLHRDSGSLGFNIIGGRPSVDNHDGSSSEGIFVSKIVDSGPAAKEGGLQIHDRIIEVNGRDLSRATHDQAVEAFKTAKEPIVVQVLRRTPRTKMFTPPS

NHERF4_2, Q86UT5 = target: NHERF4_2, Q86UT5
Chain of NHERF4_2, Q86UT5 (Q86UT5 220-308): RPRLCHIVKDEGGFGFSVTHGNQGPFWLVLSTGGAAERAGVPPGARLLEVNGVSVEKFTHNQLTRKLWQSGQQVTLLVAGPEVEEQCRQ

TJP1_2, Q07157 = target: TJP1_2, Q07157
Chain of TJP1_2, Q07157 (Q07157 181-274): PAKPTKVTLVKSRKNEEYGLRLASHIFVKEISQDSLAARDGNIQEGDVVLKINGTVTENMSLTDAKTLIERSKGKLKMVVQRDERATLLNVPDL

FRMPD4, Q14CM0 = target: FRMPD4, Q14CM0
Chain of FRMPD4, Q14CM0 (Q14CM0 67-160): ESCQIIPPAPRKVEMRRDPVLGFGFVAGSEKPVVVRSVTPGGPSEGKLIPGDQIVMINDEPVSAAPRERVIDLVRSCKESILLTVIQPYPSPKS

SNTG1, Q9NSN8 = target: T6, SNTG1, Q9NSN8
T6 sequence (Q9NSN8 52-150, limits assumed, looked up): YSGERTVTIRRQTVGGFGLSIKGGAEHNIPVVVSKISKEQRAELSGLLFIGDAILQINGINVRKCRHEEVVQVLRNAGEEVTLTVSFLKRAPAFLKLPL

APBA2_1, Q99767 = target: T7, APBA2_1, Q99767
T7 sequence (Q99767 563-664, limits assumed, looked up): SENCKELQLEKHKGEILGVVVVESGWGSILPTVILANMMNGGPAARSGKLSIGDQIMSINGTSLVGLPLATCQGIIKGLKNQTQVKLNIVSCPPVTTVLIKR

ARHGEF12, Q9NZN5-2 = target: ARHGEF12, Q9NZN5-2
Chain of ARHGEF12, Q9NZN5-2 (Q9NZN5 other isoform, or with tags, fused parts or gaps): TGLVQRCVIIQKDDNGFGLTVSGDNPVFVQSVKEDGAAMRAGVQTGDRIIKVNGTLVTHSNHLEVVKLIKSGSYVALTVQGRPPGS

MAST2, Q6P0Q8 = target: MAST2, Q6P0Q8
Chain of MAST2, Q6P0Q8 (Q6P0Q8 1099-1202): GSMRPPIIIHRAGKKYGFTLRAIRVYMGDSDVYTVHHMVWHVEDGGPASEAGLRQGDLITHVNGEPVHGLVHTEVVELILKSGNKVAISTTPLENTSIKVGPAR

CASK, O14936 = target: CASK, O14936
Chain of CASK, O14936 (O14936 487-570): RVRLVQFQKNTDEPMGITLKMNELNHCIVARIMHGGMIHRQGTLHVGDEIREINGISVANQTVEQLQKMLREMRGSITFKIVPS

SNTA1, Q13424 = target: T8, SNTA1, Q13424
T8 sequence (Q13424 82-180, limits assumed, looked up): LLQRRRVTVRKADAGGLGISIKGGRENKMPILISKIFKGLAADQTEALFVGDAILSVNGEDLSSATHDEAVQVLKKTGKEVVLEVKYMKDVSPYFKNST

RADIL, Q96JH8 = target: T9, RADIL, Q96JH8
T9 sequence (Q96JH8 971-1071, limits assumed, looked up): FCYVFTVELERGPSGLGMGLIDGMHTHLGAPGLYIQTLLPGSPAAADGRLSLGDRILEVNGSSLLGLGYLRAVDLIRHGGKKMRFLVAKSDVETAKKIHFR

GORASP2, Q9H8Y8 = target: GORASP2, Q9H8Y8
LIN7A, O14910 = target: T10, LIN7A, O14910
T10 sequence (O14910 103-200, limits assumed, looked up): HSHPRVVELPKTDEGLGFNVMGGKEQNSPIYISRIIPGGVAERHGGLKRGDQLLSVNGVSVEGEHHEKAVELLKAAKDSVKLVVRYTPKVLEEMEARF

Inadl_1, Q8NI35 = target: Inadl_1, Q8NI35
Chain of Inadl_1, Q8NI35 (Q8NI35 113-229): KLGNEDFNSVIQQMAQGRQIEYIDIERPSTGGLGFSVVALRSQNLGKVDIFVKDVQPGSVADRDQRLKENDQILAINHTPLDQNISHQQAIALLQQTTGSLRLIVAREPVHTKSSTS

MAGI1_1, Q96QZ7 = target: MAGI1_1, Q96QZ7
Chain of MAGI1_1, Q96QZ7 (Q96QZ7 1-106): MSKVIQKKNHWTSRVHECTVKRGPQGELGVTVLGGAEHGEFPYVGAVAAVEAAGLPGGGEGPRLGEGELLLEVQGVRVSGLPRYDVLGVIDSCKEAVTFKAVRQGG

DLG5_1, Q8TDM6 = target: DLG5_1, Q8TDM6
Chain of DLG5_1, Q8TDM6 (Q8TDM6 617-713): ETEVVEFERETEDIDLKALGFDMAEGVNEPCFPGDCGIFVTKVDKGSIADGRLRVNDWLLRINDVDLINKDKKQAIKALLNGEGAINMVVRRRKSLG

TX1BP3, O14907 = target: T11, TX1BP3, O14907
T11 sequence (O14907 10-122, limits assumed, looked up): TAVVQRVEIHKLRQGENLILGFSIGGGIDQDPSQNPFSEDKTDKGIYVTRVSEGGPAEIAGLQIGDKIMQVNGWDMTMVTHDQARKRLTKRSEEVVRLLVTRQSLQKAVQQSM

TIAM2, Q8IVF5 = target: T12, TIAM2, Q8IVF5
T12 sequence (Q8IVF5 885-986, limits assumed, looked up): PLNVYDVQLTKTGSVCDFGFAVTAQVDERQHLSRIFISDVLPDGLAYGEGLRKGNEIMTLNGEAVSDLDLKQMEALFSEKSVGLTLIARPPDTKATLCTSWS

[1] = plain residues with an end cap or a label only (N-terminal biotin on a linker: ado-ado)
[2] = plain residues with an end cap or a label only (N-terminal biotin on a linker: (peg)3)

Measured: pKd

EDPRVEVTQF [SLC22A9, Q8IVM8]
below the threshold: SNTG2, Q9NY99; [1] | DLG3_1, Q92796; [1] | PICK1, Q9NRD5; [1] | GRID2IP_2, A4D2P6; [1] | PDZRN3_1, Q9UPQ7; [1] | NHERF4_2, Q86UT5; [1] | TJP1_2, Q07157; [1] | FRMPD4, Q14CM0; [1] | SNTG1, Q9NSN8; [1] | APBA2_1, Q99767; [1] | ARHGEF12, Q9NZN5-2; [1] | CASK, O14936; [1] | SNTA1, Q13424; [1] | RADIL, Q96JH8; [1] | GORASP2, Q9H8Y8; [1] | LIN7A, O14910; [1] | Inadl_1, Q8NI35; [1] | MAGI1_1, Q96QZ7; [1] | DLG5_1, Q8TDM6; [1] | TX1BP3, O14907; [1]
5.4: MAST2, Q6P0Q8; [1]
4.15: TIAM2, Q8IVF5; [1]
4.17: DLG3_2, Q92796; [1]
3.83: LIN7B, Q9HAP6; [1]

PPGKHLVTEV [KCNA7, Q96RP8]
4.39: GORASP2, Q9H8Y8; [1]
5.19: DLG3_2, Q92796; [1]
4.67: TX1BP3, O14907; [1]
4.52: RADIL, Q96JH8; [1]
4.21: DLG3_1, Q92796; [1]
3.95: SNTA1, Q13424; [1]
5.21: MAST2, Q6P0Q8; [1]
5.22: ARHGEF12, Q9NZN5-2; [1]
3.97: LIN7B, Q9HAP6; [1]
4.35: SNTG1, Q9NSN8; [1]
below the threshold: SNTG2, Q9NY99; [1] | PICK1, Q9NRD5; [1] | PDZRN3_1, Q9UPQ7; [1] | NHERF4_2, Q86UT5; [1] | TJP1_2, Q07157; [1] | FRMPD4, Q14CM0; [1] | APBA2_1, Q99767; [1] | CASK, O14936; [1] | LIN7A, O14910; [1] | Inadl_1, Q8NI35; [1] | MAGI1_1, Q96QZ7; [1] | DLG5_1, Q8TDM6; [1]
4.37: GRID2IP_2, A4D2P6; [1]
4.01: TIAM2, Q8IVF5; [1]

QQSMSSADSTQA [SARS-Cov2-N, P0DTC9]
below the threshold: LIN7B, Q9HAP6; [2] | SNTG2, Q9NY99; [2] | DLG3_1, Q92796; [2] | PICK1, Q9NRD5; [2] | DLG3_2, Q92796; [2] | GRID2IP_2, A4D2P6; [2] | PDZRN3_1, Q9UPQ7; [2] | NHERF4_2, Q86UT5; [2] | TJP1_2, Q07157; [2] | FRMPD4, Q14CM0; [2] | SNTG1, Q9NSN8; [2] | APBA2_1, Q99767; [2] | ARHGEF12, Q9NZN5-2; [2] | MAST2, Q6P0Q8; [2] | CASK, O14936; [2] | SNTA1, Q13424; [2] | RADIL, Q96JH8; [2] | GORASP2, Q9H8Y8; [2] | LIN7A, O14910; [2] | Inadl_1, Q8NI35; [2] | MAGI1_1, Q96QZ7; [2] | DLG5_1, Q8TDM6; [2] | TX1BP3, O14907; [2] | TIAM2, Q8IVF5; [2]
